B1: Tetraspanin-12 (Homo sapiens), O95859 (parent)
chain: MAREDSVKCLRCLLYALNLLFWLMSISVLAVSAWMRDYLNNVLTLTAETRVEEAVILTYFPVVHPVMIAVCCFLIIVGMLGYCGTVKRNLLLLAWYFGSLLVIFCVELACGVWTYEQELMVPVQWSDMVTLKARMTNYGLPRYRWLTHAWNFFQREFKCCGVVYFTDWLEMTEMDWPPDSCCVREFPGCSKQAHQEDLSDLYQEGCGKKMYSFLRGTKQLQVLRFLGISIGVTQILAMILTITLLWALYYDRREPGTDQMMSLKNDNSQHLSCPSVELLKPSLSRIFEHTSMANSFNTHFEMEEL

Variants of: B1
Conditions: with ada10_human ADAM10, O14672
Chain of ada10_human ADAM10, O14672 (O14672 whole entry): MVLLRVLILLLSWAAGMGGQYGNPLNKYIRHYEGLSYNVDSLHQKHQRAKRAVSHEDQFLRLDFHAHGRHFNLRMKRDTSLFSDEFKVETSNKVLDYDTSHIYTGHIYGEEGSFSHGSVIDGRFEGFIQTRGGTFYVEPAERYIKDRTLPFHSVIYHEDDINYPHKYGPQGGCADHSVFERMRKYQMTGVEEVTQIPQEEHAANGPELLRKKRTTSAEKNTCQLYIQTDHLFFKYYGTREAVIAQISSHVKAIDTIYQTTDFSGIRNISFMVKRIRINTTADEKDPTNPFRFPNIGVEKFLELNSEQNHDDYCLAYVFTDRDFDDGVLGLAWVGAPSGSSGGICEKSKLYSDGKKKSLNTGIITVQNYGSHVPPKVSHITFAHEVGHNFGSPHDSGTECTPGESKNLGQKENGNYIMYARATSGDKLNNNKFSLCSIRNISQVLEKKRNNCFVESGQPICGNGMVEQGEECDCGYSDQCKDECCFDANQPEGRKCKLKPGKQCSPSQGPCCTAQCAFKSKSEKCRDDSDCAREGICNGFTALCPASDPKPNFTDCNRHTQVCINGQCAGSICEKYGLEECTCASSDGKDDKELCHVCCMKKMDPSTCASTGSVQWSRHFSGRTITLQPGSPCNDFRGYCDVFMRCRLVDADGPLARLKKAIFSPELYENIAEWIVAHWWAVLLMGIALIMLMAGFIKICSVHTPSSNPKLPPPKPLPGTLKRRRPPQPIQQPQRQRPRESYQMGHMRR
With MAREDSVKSLRSLLYALNLLFWLMSISVLAVSAWMRDYLNNVLTLTAETRVEEAVILTYFPVVHPVMIAVCCFLIIVGMLGYSGTVKRNLLLLAWYFGSLLVIFCVELACGVWTYEQELMVPVQWSDMVTLKARMTNYGLPRYRWLTHAWNFFQREFKCCGVVYFTDWLEMTEMDWPPDSCCVREFPGCSKQAHQEDLSDLYQEGCGKKMYSFLRGTKQLQVLRFLGISIGVTQILAMILTITLLWALYYDRREPGTDQMMSLKNDNSQHLSCPSVELLKPSLSRIFEHTSMANSFNTHFEMEEL [C9S;C12S;C83S] the “effect of a mutation on the interaction” value was “disrupting interaction strength”.
In the case of MAREDSVKCLRCLLYALNLLFWLMSISVLAVSAWMRDYLNNVLTLTAETRVEEAVILTYFPVVHPVMIAVCCFLIIVGMLGYCGTVKENLLLLAWYFGSLLVIFCVELACGVWTYEQELMVPVQWSDMVTLKARMTNYGLPRYRWLTHAWNFFQREFKCCGVVYFTDWLEMTEMDWPPDSCCVREFPGCSKQAHQEDLSDLYQEGCGKKMYSFLRGTKQLQVLRFLGISIGVTQILAMILTITLLWALYYDRREPGTDQMMSLKNDNSQHLSCPSVELLKPSLSRIFEHTSMANSFNTHFEMEEL [R88E], the “effect of a mutation on the interaction” value is reported as “decreasing interaction strength”.

— IntAct's records for PubMed 19587294
